Laboratory results published in patent US20110288011A1, “PEPTIDE THERAPEUTIC CONJUGATES AND USES THEREOF” (priority 2008, published 2011).

Tested on: ob/ob mice
Assay: Body weight of ob/ob mice treated with recombinant leptin
Type: in vivo
Details: 0.1 mg/mouse or 0.25 mg/mouse daily
Procedure: As a control, we tested the ability of recombinant leptin to reduce body weight in ob/ob mice using either 0.1 mg/mouse or 0.25 mg/mouse daily.

B1: recombinant leptin: recombinant leptin used as a control in ob/ob mice (protein, UniProt P41160 22-167, looked up)
Leptin: VPIQKVQDDTKTLIKTIVTRINDISHTQSVSAKQRVTGLDFIPGLHPILSLSKMDQTLAVYQQVLTSLPSQNVLQIANDLENLRDLLHLLAFSKSCSLPQTSGLQKPESLDGVLEASLYSTEVVALSRLQGSLQDILQQLDVSPEC
With B1 the body weight was “reduce body weight in these mice in a dose-dependent manner”.
